This passage reports stoichiometry N, molar ratio of Cdc31p to fusion (gel scan, not and molar ratio of Cdc31p to Sfi1p-prA (inspection of Coomassie-stained bands) results from paper PMC2173958.

For test [1], the target named is GST fusion 2b of Sfi1p (246–281) (S. cerevisiae) (UniProt Q12369). In words: pull-down.
Test [2] concerns the target GST fusion 4b of Sfi1p (676–710) (S. cerevisiae) (UniProt Q12369). In words: pull-down.
Test [3] has as its target GST fusion 3a of Sfi1p (451–474) (S. cerevisiae) (UniProt Q12369). In words: pull-down.
Test [4] addresses GST fusion 2c of Sfi1p (279–386) (S. cerevisiae) (UniProt Q12369). In words: pull-down.
For test [5], the target named is GST fusion 4a of Sfi1p (643–677) (S. cerevisiae) (UniProt Q12369). In words: pull-down.
The target in test [6] is Sfi1p-prA (S. cerevisiae) (UniProt Q12369). Nature of the test: affinity purification with mass spectrometry.

Chain of UniProt Q12369 (Q12369 whole entry, the tested form may be a part): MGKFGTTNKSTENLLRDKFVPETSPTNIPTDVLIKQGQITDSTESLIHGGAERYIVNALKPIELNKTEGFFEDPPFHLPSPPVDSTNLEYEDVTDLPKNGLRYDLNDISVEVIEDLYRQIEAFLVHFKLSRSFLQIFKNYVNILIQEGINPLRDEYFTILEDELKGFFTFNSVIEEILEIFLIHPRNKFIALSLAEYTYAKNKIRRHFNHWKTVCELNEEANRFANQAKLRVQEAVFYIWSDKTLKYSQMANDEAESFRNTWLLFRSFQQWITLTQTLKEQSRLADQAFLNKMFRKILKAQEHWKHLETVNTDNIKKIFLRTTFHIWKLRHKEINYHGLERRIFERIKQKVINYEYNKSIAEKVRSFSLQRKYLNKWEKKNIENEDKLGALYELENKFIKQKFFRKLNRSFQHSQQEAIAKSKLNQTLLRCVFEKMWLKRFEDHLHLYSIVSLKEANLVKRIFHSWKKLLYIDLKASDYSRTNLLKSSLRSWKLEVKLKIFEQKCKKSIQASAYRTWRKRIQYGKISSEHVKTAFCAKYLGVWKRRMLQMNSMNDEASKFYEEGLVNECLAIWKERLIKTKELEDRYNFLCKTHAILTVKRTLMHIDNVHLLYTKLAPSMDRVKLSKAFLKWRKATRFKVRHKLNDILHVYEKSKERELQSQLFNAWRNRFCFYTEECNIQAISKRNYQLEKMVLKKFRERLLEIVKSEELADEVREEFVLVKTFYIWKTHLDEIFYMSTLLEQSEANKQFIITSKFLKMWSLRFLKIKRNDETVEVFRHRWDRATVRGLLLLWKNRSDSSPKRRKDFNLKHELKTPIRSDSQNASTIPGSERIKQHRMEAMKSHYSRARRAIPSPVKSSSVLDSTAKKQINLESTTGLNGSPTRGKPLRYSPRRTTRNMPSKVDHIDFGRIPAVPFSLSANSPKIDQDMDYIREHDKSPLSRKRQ

Consider “recombinant Cdc31p (from UniProt P06704 2-161) (natural protein)”, for which the stoichiometry N in test [1], in test [2], in test [3] and in test [5] was less than 1.1 throughout. The molar ratio of Cdc31p to fusion (gel scan, not at saturation) in test [4] came to 1.1.

B1: Cdc31p (natural protein)
chain: MSKNRSSLQSGPLNSELLEEQKQEIYEAFSLFDMNNDGFLDYHELKVAMKALGFELPKREILDLIDEYDSEGRHLMKYDDFYIVMGEKILKRDPLDEIKRAFQLFDDDHTGKISIKNLRRVAKELGETLTDEELRAMIEEFDLDGDGEINENEFIAICTDS
In the case of B1, the molar ratio of Cdc31p to Sfi1p-prA (inspection of Coomassie-stained bands) in test [6] is greater than 1.

The stoichiometry N is a count of units in the complex or per binding partner.
